This note sets out measurements from paper PMC6220978, “Induced conformational changes activate the peptidoglycan synthase PBP1B” (Molecular Microbiology, 2018).

One assay addresses T1, PBP1B P162C/I644C (E. coli, UniProt P02919 46-844, P162C | I644C).
T1 construct: PBP1B, E. coli, residues 46-844, made by mutagenesis of pDML924; Disulphide bridge between C162 and C644 (no free thiol groups detected); reduced in the SPR assay with 2 mM TCEP; source: E. coli BL21(DE3), purified (membrane extract, HisTrap, thrombin, HiTrap SP ion exchange)
T1 sequence (looked up): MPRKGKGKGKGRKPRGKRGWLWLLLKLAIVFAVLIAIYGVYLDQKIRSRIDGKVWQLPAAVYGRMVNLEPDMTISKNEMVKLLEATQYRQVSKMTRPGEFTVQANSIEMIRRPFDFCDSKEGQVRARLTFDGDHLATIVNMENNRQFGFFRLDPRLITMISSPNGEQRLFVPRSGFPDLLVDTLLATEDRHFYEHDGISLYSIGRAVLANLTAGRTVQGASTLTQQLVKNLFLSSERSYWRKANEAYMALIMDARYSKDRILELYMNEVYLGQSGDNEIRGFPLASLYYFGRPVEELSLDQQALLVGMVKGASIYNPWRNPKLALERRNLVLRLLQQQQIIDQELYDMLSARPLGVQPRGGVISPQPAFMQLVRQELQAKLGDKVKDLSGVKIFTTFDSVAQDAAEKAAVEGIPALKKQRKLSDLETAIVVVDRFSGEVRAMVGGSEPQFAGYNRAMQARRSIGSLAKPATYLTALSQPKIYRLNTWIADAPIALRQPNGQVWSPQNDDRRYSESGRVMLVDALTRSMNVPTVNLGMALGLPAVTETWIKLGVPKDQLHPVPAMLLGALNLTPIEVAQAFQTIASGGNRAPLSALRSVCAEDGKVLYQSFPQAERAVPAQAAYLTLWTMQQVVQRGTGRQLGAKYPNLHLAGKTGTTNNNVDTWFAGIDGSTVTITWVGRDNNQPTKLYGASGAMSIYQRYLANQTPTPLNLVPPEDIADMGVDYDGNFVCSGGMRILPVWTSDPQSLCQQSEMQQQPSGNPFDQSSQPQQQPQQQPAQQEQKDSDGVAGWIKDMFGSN
In words: SPR; reducing conditions: 2 mM TCEP in the SPR running buffer, immobilised PBP1B versions incubated in it for 30 min before the assay; LpoB injected from 19.5 nM to 10 μM; apparent KD. Particulars: both partners purified. For orientation: Surface plasmon resonance follows binding to a sensor surface in real time, without labels.

In a further assay the target is T2, PBP1B K355A (E. coli, UniProt P02919 46-844, K355A).
T2 sequence (looked up): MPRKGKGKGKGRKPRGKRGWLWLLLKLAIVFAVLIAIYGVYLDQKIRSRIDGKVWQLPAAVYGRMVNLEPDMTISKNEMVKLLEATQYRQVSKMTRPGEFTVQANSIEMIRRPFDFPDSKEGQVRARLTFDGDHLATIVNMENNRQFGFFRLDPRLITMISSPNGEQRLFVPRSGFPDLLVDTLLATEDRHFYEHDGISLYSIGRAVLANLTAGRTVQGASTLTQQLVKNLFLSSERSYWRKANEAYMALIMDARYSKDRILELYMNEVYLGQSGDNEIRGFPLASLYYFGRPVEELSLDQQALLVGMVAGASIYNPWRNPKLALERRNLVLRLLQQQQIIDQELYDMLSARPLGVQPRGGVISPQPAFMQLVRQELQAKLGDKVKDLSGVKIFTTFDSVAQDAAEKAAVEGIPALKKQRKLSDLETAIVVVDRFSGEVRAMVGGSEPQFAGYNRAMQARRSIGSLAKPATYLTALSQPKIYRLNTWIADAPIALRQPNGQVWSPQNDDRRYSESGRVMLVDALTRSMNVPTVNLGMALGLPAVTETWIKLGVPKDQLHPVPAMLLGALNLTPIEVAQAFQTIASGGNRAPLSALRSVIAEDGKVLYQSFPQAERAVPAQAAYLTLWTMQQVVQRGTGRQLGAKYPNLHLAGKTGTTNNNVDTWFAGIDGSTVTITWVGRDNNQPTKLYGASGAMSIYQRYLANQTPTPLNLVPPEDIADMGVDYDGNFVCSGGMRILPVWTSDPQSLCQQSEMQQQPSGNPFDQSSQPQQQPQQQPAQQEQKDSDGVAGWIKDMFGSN
In words: cell-based or functional assay.

The target in another assay is T3, PBP1B Q318A (E. coli, UniProt P02919 46-844, Q318A).
T3 sequence (looked up): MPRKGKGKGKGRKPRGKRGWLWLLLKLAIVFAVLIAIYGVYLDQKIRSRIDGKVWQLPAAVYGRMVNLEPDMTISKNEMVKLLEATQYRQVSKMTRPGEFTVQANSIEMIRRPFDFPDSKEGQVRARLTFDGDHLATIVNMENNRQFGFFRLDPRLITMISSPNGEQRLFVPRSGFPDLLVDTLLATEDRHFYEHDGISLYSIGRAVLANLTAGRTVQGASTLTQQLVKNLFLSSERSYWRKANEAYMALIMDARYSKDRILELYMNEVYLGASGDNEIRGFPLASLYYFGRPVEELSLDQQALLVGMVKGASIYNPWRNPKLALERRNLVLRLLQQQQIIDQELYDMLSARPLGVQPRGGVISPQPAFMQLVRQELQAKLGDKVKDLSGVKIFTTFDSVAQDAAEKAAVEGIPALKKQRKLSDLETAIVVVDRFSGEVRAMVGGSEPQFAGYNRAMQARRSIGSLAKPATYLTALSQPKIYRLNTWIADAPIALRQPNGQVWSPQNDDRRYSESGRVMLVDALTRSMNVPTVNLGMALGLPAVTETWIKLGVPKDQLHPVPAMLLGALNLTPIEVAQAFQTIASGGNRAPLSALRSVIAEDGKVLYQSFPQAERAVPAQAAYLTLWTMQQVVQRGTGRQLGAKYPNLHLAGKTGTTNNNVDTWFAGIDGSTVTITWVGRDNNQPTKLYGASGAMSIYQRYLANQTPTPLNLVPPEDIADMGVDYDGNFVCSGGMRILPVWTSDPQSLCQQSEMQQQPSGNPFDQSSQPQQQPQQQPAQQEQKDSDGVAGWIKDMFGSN
In words: cell-based or functional assay.

B1: LpoB (natural protein, E. coli)
chain: VGQREPAPVEEVKPAPEQPAEPQQPVPTVPSVPTIPQQPGPIEHEDQTAPPAPHIRHYDWNGAMQPMVSKMLGADGVTAGSVLLVDSVNNRTNGSLNAAEATETLRNALANNGKFTLVSAQQLSMAKQQLGLSPQDSLGTRSKAIGIARNVGAHYVLYSSASGNVNAPTLQMQLMLVQTGEIIWSGKGAVSQQ
notes: LpoB, E. coli; also called lipoprotein LpoB; source: E. coli BL21(DE3), purified (HisTrap, Superdex 200), as in Egan et al. 2014
In the case of B1, in the assay with PBP1B P162C/I644C, the Kd was determined as 182 nM. The “fold activation of the GTase rate of PBP1B K355A by LpoB” value with PBP1B K355A is about 37 fold. For the same molecule, the “fold activation of the GTase rate of PBP1B Q318A by LpoB” value in the assay with PBP1B Q318A is about 25 fold.
